Measured values taken from US20250297019A1 (Genentech, published 2025).

Tests used:
mouse CCR8 = biological target: T1, mouse CCR8 (mouse, UniProt P56484 1-353); experiment: assay not described ('in vitro assays')
T1 construct: format of the KD assay of the anti-murine antibody is not described; also called mCCR8; murine CCR8
T1 sequence: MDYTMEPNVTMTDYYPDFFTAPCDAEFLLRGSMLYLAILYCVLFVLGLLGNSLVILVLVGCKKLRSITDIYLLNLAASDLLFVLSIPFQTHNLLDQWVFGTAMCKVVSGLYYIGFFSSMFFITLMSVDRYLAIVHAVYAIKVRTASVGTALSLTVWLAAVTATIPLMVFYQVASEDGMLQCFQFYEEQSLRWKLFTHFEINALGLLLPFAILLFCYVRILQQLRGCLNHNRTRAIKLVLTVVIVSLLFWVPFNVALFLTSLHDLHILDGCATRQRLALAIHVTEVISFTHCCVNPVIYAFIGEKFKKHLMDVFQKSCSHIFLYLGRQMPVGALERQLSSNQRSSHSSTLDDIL

human CCR8 [1] = biological target: T2, human CCR8 (human, UniProt P51685 1-355); experiment: cell-based or functional assay
human CCR8 [2] = biological target: T2, human CCR8; experiment: cell-based or functional assay; remark: listed apart in the source
[3] = biological target: T3, human Fc gamma receptor IIIa V158, GST fusion (human, UniProt P08637 17-208); experiment: ELISA, captured GST-FcgR3a
T3 construct: extracellular domain; also called GST-FcgR3a.V158; FcgR3a.V158 protein; not shown: Gly-6xHis-glutathione S-transferase (GST) tag at the C-terminus
Experimental: (§1) Briefly, an anti-GST antibody was coated on Nunc MAXISORP™ plates. GST-FcgR3a.V158 and GST-FcgR3a.F158 were captured at 500 ng/mL. Plates were then washed and then serially diluted anti-CCR8 antibodies starting at 100 μg/mL were incubated on the plate for 1 hour at room temperature. Plates were washed and bound antibody was detected by an HRP-conjugated anti-human IgG secondary antibody. Absorbance at 450 nm was measured by a plate reader. The data were fitted using a 4-parameter logistic curve in SOFTM^AX® Pro.

[4] = biological target: T4, human Fc gamma receptor IIIa F158, GST fusion (human, UniProt P08637 17-208); experiment: ELISA, captured GST-FcgR3a
T4 construct: extracellular domain; also called GST-FcgR3a.F158; FcgR3a.F158 protein; not shown: Gly-6xHis-glutathione S-transferase (GST) tag at the C-terminus
Experimental: as §1

human CCR8 [5] = biological target: T2, human CCR8; experiment: cell-based or functional assay; remark: listed apart in the source
cynomolgus monkey CCR8 = biological target: T5, cynomolgus monkey CCR8 (cynomolgus monkey, UniProt O97665 1-356 (rhesus entry)); experiment: competition of unlabelled antibody with a fixed concentration of the 125I-labelled same antibody on CHO cells stably expressing cyno CCR8 (CHO-cynoCCR8), filter plates, gamma counting
T5 construct: On CHO cells stably expressing cyno CCR8 or on cyno blood Treg cells; also called cyno CCR8; cynoCCR8

human CCR8 [6] = biological target: T2, human CCR8; experiment: cell-based or functional assay; remark: listed apart in the source

T3 sequence (P08637 17-208 F176V): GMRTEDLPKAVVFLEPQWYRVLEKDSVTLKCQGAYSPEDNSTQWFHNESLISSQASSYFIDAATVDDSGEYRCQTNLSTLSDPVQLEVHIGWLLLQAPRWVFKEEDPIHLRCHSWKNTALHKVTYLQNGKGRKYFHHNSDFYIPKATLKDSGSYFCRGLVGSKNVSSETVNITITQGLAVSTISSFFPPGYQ
T4 sequence (P08637 17-208): as the sequence (P08637 17-208 F176V) above, with V160F counted along it
T5 sequence (O97665 other isoform, or with tags, fused parts or gaps): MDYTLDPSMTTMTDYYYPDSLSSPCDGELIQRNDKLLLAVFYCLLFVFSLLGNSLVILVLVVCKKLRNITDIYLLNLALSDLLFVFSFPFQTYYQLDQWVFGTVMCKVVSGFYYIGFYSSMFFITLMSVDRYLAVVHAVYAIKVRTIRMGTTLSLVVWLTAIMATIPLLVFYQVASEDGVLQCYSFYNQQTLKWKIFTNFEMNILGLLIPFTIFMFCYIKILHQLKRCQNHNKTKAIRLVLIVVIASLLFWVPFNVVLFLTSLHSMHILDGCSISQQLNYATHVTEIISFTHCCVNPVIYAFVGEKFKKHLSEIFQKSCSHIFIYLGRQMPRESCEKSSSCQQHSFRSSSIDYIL

| ADCC EC50 (calcein release; NK-92_F158 effector cells, CHO/hCCR8.Gna15 target cells) (human CCR8 [1]) [nM] | ADCP EC50, macrophages of donor HR/FF (FIG. 14A) (human CCR8 [5]) [nM] | ADCP EC50, macrophages of donor RR/FF (FIG. 14B) (human CCR8 [5]) [nM] | ADCP EC50, macrophages of donor RR/VF (FIG. 14D) (human CCR8 [5]) [nM] | further results | Binder |
| --- | --- | --- | --- | --- | --- |
| – | – | – | – | Kd (mouse CCR8): 0.218 nM | mouse surrogate anti-CCR8 mAb (antibody, mouse IgG2a, kappa, V domains shown, Chimeric rabbit-derived murine IgG2a; also called Anti-mCCR8; anti-murine CCR8 antibody) VH: QSVKESGGRLVTPGGSLTLTCTVSRIDLNEYSMAWVRQAPGKGLEWIGYIDAGSGSAYYASWAKGRFTISKTSSTTVDLEMTTLTTEDTATYFCARDVYPGYTTGTNLGLWGPGTLVTVSS VL: AAVLTQTPASVSAAVGGTVSISCRSSKSVYSNYLSWYQQKPGQPPKLLIYRASTLTPGVPSRFKGSGSGTQFSLTIRDVQSADAGSYYCAGGYSSGSDNTFGGGTKLEIKR |
| 0.02 | – | – | – | – | hu.Ab5.H1L1 (antibody, human IgG1, V domains shown) VH: EQQLLESGGGLVQPGGSLRLSCAVSGIDLSTYAMGWVRQAPGKGLEWIGLIHRSGRTYYATWAKGRFTISKDSSKTTVYLQMNSLRAEDTAVYFCTRSYPDYSATASIWGPGTTVTVSS VL: DIQVTQSPSSLSASVGDRVTITCQASENIANALAWYQQKPGKPPKFLIYGASNLASGVPSRFSGSGSGTDFTFTISSLQPEDIATYYCQQAYYGNSFVEGTFGGGTKVEIK |
| 0.08 | – | – | – | IC50 of CCL1 blocking (Ca2+ influx, CHO/hCCR8.Gna15 cells, 20 nM CCL1) (human CCR8 [2]): 57.9 nM | hu.Ab4.H1L1 (antibody, human IgG1, V domains shown) VH: EQQLLESGGGLVQPGGSLRLSCAVSGFSLSNYAMIWVRQAPGKGLEWVGTISLGGYTYYANWAKGRFTISKDSSKTTVYLQMNSLRAEDTAVYFCARARWSTDSAIYTYAFDPWGPGTLVTVSS VL: DYQMTQSPSSLSASVGDRVTITCQASQSISSYLSWYQQKPGKRPKLLIYKASTLASGVPSRFSGSGSGTDFTLTISSLQPEDFATYYCQQGYTSSNIDNIFGGGTKVEIK |
| – | 0.017 | 0.2 | 0.5 | fold increase in binding potency over the fucosylated counterpart [3]: ~10 fold; fold increase in binding potency over the fucosylated counterpart [4]: ~10 fold; ADCP EC50, macrophages of donor HR/FF (FIG. 14E) (human CCR8 [5]): 0.022 nM; ADCP EC50, macrophages of donor HR/VF (FIG. 14C) (human CCR8 [5]): 0.01 nM | Afuc.hu.Ab5.H13L1 (antibody, human IgG1, kappa, afucosylated Fc N-glycan (position Asn 299 as printed); about 80% to about 95% afucosylation, also called afucosylated hu.Ab5.H13L1; Afuc.Ab5.H13L1) heavy: not shown light: DIQVTQSPSSLSASVGDRVTITCQASENIANALAWYQQKPGKPPKFLIYGASNLASGVPSRFSGSGSGTDFTFTISSLQPEDIATYYCQQAYYGNSFVEGTFGGGTKVEIKRTVAAPSVFIFPPSDEQLKSGTASVVCLLNNFYPREAKVQWKVDNALQSGNSQESVTEQDSKDSTYSLSSTLTLSKADYEKHKVYACEVTHQGLSSPVTKSFNRGEC |
| – | – | – | – | IC50 (read off the curve) (cynomolgus monkey CCR8): ~0.04 nM | hu.Ab5.H13L1 (antibody, human IgG1, kappa, Fucosylated human IgG1 kappa; also called Ab5 variant; huCCR8 antibody hu.Ab5.H13L1 (hIgG1)) heavy: not shown light: DIQVTQSPSSLSASVGDRVTITCQASENIANALAWYQQKPGKPPKFLIYGASNLASGVPSRFSGSGSGTDFTFTISSLQPEDIATYYCQQAYYGNSFVEGTFGGGTKVEIKRTVAAPSVFIFPPSDEQLKSGTASVVCLLNNFYPREAKVQWKVDNALQSGNSQESVTEQDSKDSTYSLSSTLTLSKADYEKHKVYACEVTHQGLSSPVTKSFNRGEC |
| 0.02 | – | – | – | – | hu.Ab3.H1L1 (antibody, human IgG1, kappa, V domains shown) VH: EQQLVESGGGLVQPGGSLRLSCAVSGFSLSSYAMSWVRQAPGKGLEWIGVISASGRIIYATWAKGRFTISKDSAKTSVYLQMNSLRDEDTAVYFCARGVPSYSLVMSDWGPGTTVTVSS VL: EPVMTQSPATLSVSPGERATLSCQASQSISNALAWYQQKPGQPPRLLIYEVSKVASGVPARFSGSGSGTEFTLTISSLQSEDFAVYYCQSAYYGNSYVWGAFGQGTKVEIKR |
| – | 0.35 | 0.81 | 0.41 | IC50 of ligand blocking (Ca2+ influx, 20 nM CCL1) (human CCR8 [6]): 57.9 nM | hu.Ab4.H12L3 (antibody, human IgG1, kappa) heavy: not shown light: DYQMTQSPSSLSASVGDRVTITCQASQSISSYLSWYQQKPGKAPKLLIYKASTLASGVPSRFSGSGSGTDFTLTISSLQPEDFATYYCQQGYTSSNIDNIFGGGTKVEIKRTVAAPSVFIFPPSDEQLKSGTASVVCLLNNFYPREAKVQWKVDNALQSGNSQESVTEQDSKDSTYSLSSTLTLSKADYEKHKVYACEVTHQGLSSPVTKSFNRGEC |
| – | 0.025 | 0.12 | 0.079 | fold increase in binding potency over the fucosylated counterpart [3]: ~10 fold; fold increase in binding potency over the fucosylated counterpart [4]: ~10 fold; ADCP EC50, macrophages of donor HR/FF (FIG. 14E) (human CCR8 [5]): 0.035 nM; ADCP EC50, macrophages of donor HR/VF (FIG. 14C) (human CCR8 [5]): 0.017 nM | Afuc.hu.Ab4.H12L3 (antibody, human IgG1, kappa, afucosylated Fc N-glycan (position Asn 299 as printed); about 80% to about 95% afucosylation, also called afucosylated hu.Ab4.H12L3; Afuc.Ab4.H12L3) heavy: not shown light: DYQMTQSPSSLSASVGDRVTITCQASQSISSYLSWYQQKPGKAPKLLIYKASTLASGVPSRFSGSGSGTDFTLTISSLQPEDFATYYCQQGYTSSNIDNIFGGGTKVEIKRTVAAPSVFIFPPSDEQLKSGTASVVCLLNNFYPREAKVQWKVDNALQSGNSQESVTEQDSKDSTYSLSSTLTLSKADYEKHKVYACEVTHQGLSSPVTKSFNRGEC |
